Results on one molecule are retold here after publication PMC4726124, “Peptides in headlock – a novel high-affinity and versatile peptide-binding nanobody for proteomics and microscopy” (Scientific Reports, 2016).

The assay concerns the target T1, GFP with a C-terminal BC2 tag (BC2 tag (beta-catenin 16-27) on GFP, chimera).
T1 construct: GFP ('modified GFP that contains BC2T as a C-terminal peptide tag'; its control is called wtGFP); variant and limits are in the Supplementary methods; BC2 tag (BC2T), residues 16-27 of beta-catenin, at the C-terminus; also called GFP_(BC2T); source: E. coli, soluble protein fraction of the lysate (pull-downs); protein expression and purification are told in the Supplementary methods
T1 chain: PDRKAAVSHWQQ
The assay is described as follows: SPR; measurements 'using the GFP_(BC2T) construct'; who was immobilised and the conditions are not told in the text shown (Supplementary methods, Supplementary Fig. 3). The note with it: both partners purified.

B1: BC2 nanobody (VHH)
VHH: QVQLVESGGGLVQPGGSLTLSCTASGFTLDHYDIGWFRQAPGKEREGVSCINNSDDDTYYADSVKGRFTIFMNNAKDTVYLQMNSLKPEDTAIYYCAEARGCKRGRYEYDFWGQGTQVTVSS
notes: In the pull-downs it is covalently coupled to Sepharose beads (BC2 nanotrap); also called BC2-Nb; wt; source: purified; expression and purification are told in the Supplementary methods
B1: the Kd (commonly the constant that tells how readily two partners part at equilibrium) was found to be 1.4 ± 0.06 nM; the koff (in general, a measure of how fast the partners let go of each other) was determined as 0.00064 s⁻¹; the kon – broadly, the second-order rate constant of association – turned out to be 460000 M⁻¹ s⁻¹.
